Among the data in US20110305670A1 are IC50 difference between CD4-Ig and eCD4-Ig (fold) and neutralization of GFP-expressing HIV-1, IC50 values, retold here.

In assay [1] the target is envelope glycoprotein of the R5X4 isolate 89.6, on virus (HIV-1 (89.6 isolate)) (UniProt Q73372). Briefly: cell-based or functional assay.
Assay [2] has as its target envelope glycoprotein of the R5 isolate YU2, on virus (HIV-1 (YU2 isolate)) (UniProt P35961). Briefly: cell-based or functional assay.
UniProt P35961, sequence (P35961 32-843): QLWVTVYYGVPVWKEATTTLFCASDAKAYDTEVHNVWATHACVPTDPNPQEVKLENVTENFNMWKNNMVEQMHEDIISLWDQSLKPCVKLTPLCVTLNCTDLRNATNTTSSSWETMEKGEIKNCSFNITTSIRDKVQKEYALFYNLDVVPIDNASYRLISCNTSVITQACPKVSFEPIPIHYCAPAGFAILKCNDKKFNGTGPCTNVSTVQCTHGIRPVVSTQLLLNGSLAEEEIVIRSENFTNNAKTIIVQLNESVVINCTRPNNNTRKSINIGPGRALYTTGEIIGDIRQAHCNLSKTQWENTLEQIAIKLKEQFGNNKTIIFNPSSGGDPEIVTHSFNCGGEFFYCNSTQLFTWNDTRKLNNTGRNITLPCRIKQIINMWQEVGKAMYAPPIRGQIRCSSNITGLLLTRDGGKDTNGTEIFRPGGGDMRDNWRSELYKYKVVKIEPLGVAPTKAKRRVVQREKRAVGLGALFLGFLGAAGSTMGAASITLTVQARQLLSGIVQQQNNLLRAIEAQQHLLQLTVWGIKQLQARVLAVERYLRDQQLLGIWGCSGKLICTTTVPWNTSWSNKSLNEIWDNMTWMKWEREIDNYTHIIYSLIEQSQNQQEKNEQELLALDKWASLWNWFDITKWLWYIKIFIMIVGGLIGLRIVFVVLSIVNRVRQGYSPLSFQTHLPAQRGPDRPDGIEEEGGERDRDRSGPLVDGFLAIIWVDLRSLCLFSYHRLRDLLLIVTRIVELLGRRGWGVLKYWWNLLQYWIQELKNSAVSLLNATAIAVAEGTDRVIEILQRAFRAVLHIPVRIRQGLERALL

Consider “eCD4-Ig (from UniProt P01730 26-203) (Fc fusion)”, for which the values for the IC50 difference between CD4-Ig and eCD4-Ig (fold) in assay [1] and in assay [2] were 50 fold and 3 fold, respectively. For the same substance, the neutralization of GFP-expressing HIV-1, IC50 in assay [1] was found to be 0.6 nM; in assay [2] it was 2 nM.
